Values joined by “and” are separate entries in the source; they are usually repeats but may differ in a detail not shown here. Equal values may be shown once.
Columns and labels:
[1] = biological target: T1, Abz-R175-RHTQSAEDDSERQ-EDDnp
T1 chain: RRHTQSAEDDSERQ

[2] = biological target: T2, Abz-R175-RHTRSAEDDSERQ-EDDnp
T2 chain: RRHTRSAEDDSERQ

Abz-S513-SDSGSQ-EDDnp = biological target: T3, Abz-S513-SDSGSQ-EDDnp
T3 chain: SSDSGSQ

Abz-G386-SSDAAEQ-EDDnp = biological target: T4, Abz-G386-SSDAAEQ-EDDnp
T4 chain: GSSDAAEQ

Abz-GFSEYK(Dnp)-NH2 = biological target: T5, Abz-GFSEYK(Dnp)-NH2
T5 chain: GFSEYK

Abz-L134-ELDSRQ-EDDnp = biological target: T6, Abz-L134-ELDSRQ-EDDnp
T6 chain: LELDSRQ

Abz-R506-RDDSSEQ-EDDnp = biological target: T7, Abz-R506-RDDSSEQ-EDDnp
T7 chain: RRDDSSEQ

Abz-GFSDYK(Dnp)-NH2 = biological target: T8, Abz-GFSDYK(Dnp)-NH2
T8 chain: GFSDYK

Abz-D125-HLSDTSTQ-EDDnp = biological target: T9, Abz-D125-HLSDTSTQ-EDDnp
T9 chain: DHLSDTSTQ

Abz-N449-EMDSFNQ-EDDnp = biological target: T10, Abz-N449-EMDSFNQ-EDDnp
T10 chain: NEMDSFNQ

Abz-GFSEYK(Dnp)-OH = biological target: T11, Abz-GFSEYK(Dnp)-OH
T11 chain: GFSEYK

Abz-N122-GYDVYHQ-EDDnp = biological target: T12, Abz-N122-GYDVYHQ-EDDnp
T12 chain: NGYDVYHQ

Abz-G337-SNDIMGQ-EDDnp = biological target: T13, Abz-G337-SNDIMGQ-EDDnp
T13 chain: GSNDIMGQ

Abz-GFSDYK(Dnp)-OH = biological target: T14, Abz-GFSDYK(Dnp)-OH
T14 chain: GFSDYK

Abz-I232-PSDFEGQ-EDDnp = biological target: T15, Abz-I232-PSDFEGQ-EDDnp
T15 chain: IPSDFEGQ

Abz-DRRL-EDDnp = biological target: T16, Abz-DRRL-EDDnp
T16 chain: DRRL

Abz-R76-SEDAGFQ-EDDnp = biological target: T17, Abz-R76-SEDAGFQ-EDDnp
T17 chain: RSEDAGFQ

Abz-A110-WLDSGVQ-EDDnp = biological target: T18, Abz-A110-WLDSGVQ-EDDnp
T18 chain: AWLDSGVQ

Abz-L94-MMDFRGQ-EDDnp = biological target: T19, Abz-L94-MMDFRGQ-EDDnp
T19 chain: LMMDFRGQ

Abz-GFSDYQ-EDDnp = biological target: T20, Abz-GFSDYQ-EDDnp
T20 chain: GFSDYQ

Abz-GP197-QRDSQAQ-EDDnp = biological target: T21, Abz-GP197-QRDSQAQ-EDDnp
T21 chain: GPQRDSQAQ

Abz-R441-GLDNEIQ-EDDnp = biological target: T22, Abz-R441-GLDNEIQ-EDDnp
T22 chain: RGLDNEIQ

Abz-S212-AEDNSPQ-EDDnp = biological target: T23, Abz-S212-AEDNSPQ-EDDnp
T23 chain: SAEDNSPQ

Abz-T294-HLDTKKQ-EDDnp = biological target: T24, Abz-T294-HLDTKKQ-EDDnp
T24 chain: THLDTKKQ

[3] = substrate: Nc1ccccc1C(=O)NCC(=O)N[C@@H](Cc1ccccc1)C(=O)N[C@@H](CO)C(=O)N[C@@H](CC(=O)O)C(=O)N[C@@H](Cc1ccc(O)cc1)C(=O)N[C@@H](CCCCNc1ccc([N+](=O)[O-])cc1[N+](=O)[O-])C(=O)O; test: Hydrolysis by membrane-bound PHEX from transfected LLC-PK1 cells; format: biochemical, human; details: other: membrane-bound PHEX, 0.01 M Bis-Tris pH 5.5, 150 mM NaCl, 37° C.
Experimental: (§1) FIG. 3 graphically illustrates hydrolysis of Abz-GFSDYK(Dnp)-OH (SEQ ID NO:3) by secPHEX and membrane-bound PHEX. Abz-GFSDYK(Dnp)-OH (SEQ ID NO:3) at a concentration of 10 μM was incubated at 37° C., in 0.01 M Bis-Tris buffer, pH 5.5 with 150 mM NaCl, containing 2,1 μg total proteins from membranes extracted from LLC-PK1 transfected with vector alone (notes as “A” on the figure), or 2,1 μg total proteins from membranes extracted from LLC-PK1 transfected with the membrane-bound form of human PHEX (noted as “□” on the figure); or 2,1 μg total proteins from membranes extracted from LLC-PK1 transfected with vector alone to which 500 ng purified secPHEX were added (noted as “o” on the figure). Fluorescence was monitored every 4 min for a period of 28 min. Amounts of secPHEX or membrane-bound PHEX (mPHEX) in the enzymatic reactions were evaluated by immunoblotting (Inset). Mock: cells transfected with vector alone;
(§2) The human recombinant secPHEX was obtained following the procedure previously described (17, WO 00/50580). Purified secPHEX concentration was determined using the Bradford method (DC protein assay kit; Bio-Rad, Mississauga, ON, Canada). […] Insoluble material was pelleted by centrifugation at 10,000 g for 15 min and protein concentrations of the supernatant determined using the Bradford method described above. PHEX amounts were evaluated by immunoblotting as described previously (17). […]

[4] = substrate: Nc1ccccc1C(=O)NCC(=O)N[C@@H](Cc1ccccc1)C(=O)N[C@@H](CO)C(=O)N[C@@H](CC(=O)O)C(=O)N[C@@H](Cc1ccc(O)cc1)C(=O)N[C@@H](CCCCNc1ccc([N+](=O)[O-])cc1[N+](=O)[O-])C(=O)O; test: Hydrolysis by secPHEX added to membranes of vector-transfected LLC-PK1 cells; format: biochemical, human; details: other: secPHEX added to membranes from cells transfected with vector alone, 0.01 M Bis-Tris pH 5.5, 150 mM NaCl, 37° C.
Experimental: as §1, §2

B1: human recombinant secPHEX (pure soluble form of PHEX) (protein)
chain: SLQAKQEYCLKPECIEAAAAILSKVNLSVDPCDNFFRFACDGWISNNPIPEDMPSYGVYPWLRHNVDLKLKELLEKSISRRRDTEAIQKAKILYSSCMNEKAIEKADAKPLLHILRHSPFRWPVLESNIGPEGVWSERKFSLLQTLATFRGQYSNSVFIRLYVSPDDKASNEHILKLDQATLSLAVREDYLDNSTEAKSYRDALYKFMVDTAVLLGANSSRAEHDMKSVLRLEIKIAEIMIPHENRTSEAMYNKMNISELSAMIPQFDWLGYIKKVIDTRLYPHLKDISPSENVVVRVPQYFKDLFRILGSERKKTIANYLVWRMVYSRIPNLSRRFQYRWLEFSRVIQGTTTLLPQWDKCVNFIESALPYVVGKMFVDVYFQEDKKEMMEELVEGVRWAFIDMLEKENEWMDAGTKRKAKEKARAVLAKVGYPEFIMNDTHVNEDLKAIKFSEADYFGNVLQTRKYLAQSDFFWLRKAVPKTEWFTNPTTVNAFYSASTNQIRFPAGELQKPFFWGTEYPRSLSYGAIGVIVGHEFTHGFDNNGRKYDKNGNLDPWWSTESEEKFKEKTKCMINQYSNYYWKKAGLNVKGKRTLGENIADNGGLREAFRAYRKWINDRRQGLEEPLLPGITFTNNQLFFLSYAHVRCNSYRPEAAREQVQIGAHSPPQFRVNGAISNFEEFQKAFNCPPNSTMNRGMDSCRLW
[1]
  Km: 1.7 µM
  kcat: 0.15 s⁻¹
  kcat/Km: 88200 M⁻¹ s⁻¹
[2]
  Km: 3 µM
  kcat: 0.2 s⁻¹
  kcat/Km: 66700 M⁻¹ s⁻¹
Abz-S513-SDSGSQ-EDDnp
  Km: 31.6 µM
  kcat: 0.2 s⁻¹
  kcat/Km: 7100 M⁻¹ s⁻¹
Abz-G386-SSDAAEQ-EDDnp
  Km: 2.4 µM
  kcat: 0.3 s⁻¹
  kcat/Km: 125000 M⁻¹ s⁻¹
Abz-GFSEYK(Dnp)-NH2
  hydrolysis by PHEX: Resistant
Abz-L134-ELDSRQ-EDDnp
  Km: 0.9 µM
  kcat: 0.05 s⁻¹
  kcat/Km: 55500 M⁻¹ s⁻¹
Abz-R506-RDDSSEQ-EDDnp
  Km: 5.3 µM
  kcat: 0.5 s⁻¹
  kcat/Km: 94300 M⁻¹ s⁻¹
Abz-GFSDYK(Dnp)-NH2
  Km: 53.2 µM
  fold decrease in catalytic efficiency against Abz-GFSDYK(Dnp)-OH: a 6-fold decrease in catalytic efficiency due to its low affinity for the enzyme
  kcat: 1.3 s⁻¹
  kcat/Km: 24400 M⁻¹ s⁻¹
Abz-D125-HLSDTSTQ-EDDnp
  Km: 1.3 µM
  kcat: 0.1 s⁻¹
  kcat/Km: 77000 M⁻¹ s⁻¹
Abz-N449-EMDSFNQ-EDDnp
  Km: 38 µM
  kcat: 0.3 s⁻¹
  kcat/Km: 7900 M⁻¹ s⁻¹
Abz-GFSEYK(Dnp)-OH
  kcat/Km (pseudo first-order conditions): 9000 M⁻¹ s⁻¹
Abz-N122-GYDVYHQ-EDDnp
  Km: 9 µM
  kcat: 0.01 s⁻¹
  kcat/Km: 1100 M⁻¹ s⁻¹
Abz-G337-SNDIMGQ-EDDnp
  Km: 13 µM
  kcat: 0.01 s⁻¹
  kcat/Km: 800 M⁻¹ s⁻¹
Abz-GFSDYK(Dnp)-OH
  Km: 3 µM and 5×10^-6 M and 10×10^-6 M, for secPHEX and membrane-bound PHEX, respectively
  kcat: 0.5 s⁻¹
  kcat/Km: 167000 M⁻¹ s⁻¹
  substrate hydrolysis (fluorescence): degradation of the substrate was observed
Abz-I232-PSDFEGQ-EDDnp
  kcat/Km (pseudo-first order conditions): 80000 M⁻¹ s⁻¹
Abz-DRRL-EDDnp
  substrate hydrolysis (fluorescence): Neither enzyme hydrolyzed this substrate
Abz-R76-SEDAGFQ-EDDnp
  Km: 4.1 µM
  kcat: 0.06 s⁻¹
  kcat/Km: 14600 M⁻¹ s⁻¹
Abz-A110-WLDSGVQ-EDDnp
  Km: 1.5 µM
  kcat: 0.04 s⁻¹
  kcat/Km: 26700 M⁻¹ s⁻¹
Abz-L94-MMDFRGQ-EDDnp
  Km: 17 µM
  kcat: 0.8 s⁻¹
  kcat/Km: 45000 M⁻¹ s⁻¹
Abz-GFSDYQ-EDDnp
  Km: 13.3 µM
  kcat: 0.6 s⁻¹
  kcat/Km: 45100 M⁻¹ s⁻¹
Abz-GP197-QRDSQAQ-EDDnp
  Km: 47 µM
  kcat: 0.2 s⁻¹
  kcat/Km: 4300 M⁻¹ s⁻¹
Abz-R441-GLDNEIQ-EDDnp
  Km: 7 µM
  kcat: 0.03 s⁻¹
  kcat/Km: 4300 M⁻¹ s⁻¹
Abz-S212-AEDNSPQ-EDDnp
  Km: 22 µM
  kcat: 0.3 s⁻¹
  kcat/Km: 13600 M⁻¹ s⁻¹
Abz-T294-HLDTKKQ-EDDnp
  Km: 15 µM
  kcat: 0.02 s⁻¹
  kcat/Km: 1300 M⁻¹ s⁻¹

B2: membrane-bound form of human PHEX (Homo sapiens) (protein)
chain: MEAETGSSVETGKKANRGTRIALVVFVGGTLVLGTILFLVSQGLLSLQAKQEYCLKPECIEAAAAILSKVNLSVDPCDNFFRFACDGWISNNPIPEDMPSYGVYPWLRHNVDLKLKELLEKSISRRRDTEAIQKAKILYSSCMNEKAIEKADAKPLLHILRHSPFRWPVLESNIGPEGVWSERKFSLLQTLATFRGQYSNSVFIRLYVSPDDKASNEHILKLDQATLSLAVREDYLDNSTEAKSYRDALYKFMVDTAVLLGANSSRAEHDMKSVLRLEIKIAEIMIPHENRTSEAMYNKMNISELSAMIPQFDWLGYIKKVIDTRLYPHLKDISPSENVVVRVPQYFKDLFRILGSERKKTIANYLVWRMVYSRIPNLSRRFQYRWLEFSRVIQGTTTLLPQWDKCVNFIESALPYVVGKMFVDVYFQEDKKEMMEELVEGVRWAFIDMLEKENEWMDAGTKRKAKEKARAVLAKVGYPEFIMNDTHVNEDLKAIKFSEADYFGNVLQTRKYLAQSDFFWLRKAVPKTEWFTNPTTVNAFYSASTNQIRFPAGELQKPFFWGTEYPRSLSYGAIGVIVGHEFTHGFDNNGRKYDKNGNLDPWWSTESEEKFKEKTKCMINQYSNYYWKKAGLNVKGKRTLGENIADNGGLREAFRAYRKWINDRRQGLEEPLLPGITFTNNQLFFLSYAHVRCNSYRPEAAREQVQIGAHSPPQFRVNGAISNFEEFQKAFNCPPNSTMNRGMDSCRLW
notes: expressed in transfected cells; host or cells: LLC-PK1 (porcine kidney cells)
Abz-GFSDYK(Dnp)-OH
  Km: 5×10^-6 M and 10×10^-6 M, for secPHEX and membrane-bound PHEX, respectively
  substrate hydrolysis (fluorescence): degradation of the substrate was observed
Abz-DRRL-EDDnp
  substrate hydrolysis (fluorescence): Neither enzyme hydrolyzed this substrate
[3]
  Km: 10 µM

B3: secPHEX (Homo sapiens) (protein)
chain: B1 chain
notes: pure soluble form of PHEX (secPHEX); made in house
[4]
  Km: 5 µM
